According to US20020068706A1 (GPC BIOTECH, published 2002):

How the values were obtained:
CDK4/cyclin D1 complex [1] = biological target: T1, CDK4/cyclin D1 complex (UniProt P11802 1-303; P24385 1-295); experiment: cell-based or functional assay
CDK2/cyclin E complex = CDK2/cyclin E complex (UniProt P24941 1-298); experiment: cell-based or functional assay
CDK2/cyclin A complex = CDK2/cyclin A complex (UniProt P24941 1-298); experiment: cell-based or functional assay
cdc2/cyclin B complex = cdc2/cyclin B complex (UniProt P06493 1-297); experiment: cell-based or functional assay
Chain of cdc2/cyclin B complex (P06493 whole entry, one chain of several): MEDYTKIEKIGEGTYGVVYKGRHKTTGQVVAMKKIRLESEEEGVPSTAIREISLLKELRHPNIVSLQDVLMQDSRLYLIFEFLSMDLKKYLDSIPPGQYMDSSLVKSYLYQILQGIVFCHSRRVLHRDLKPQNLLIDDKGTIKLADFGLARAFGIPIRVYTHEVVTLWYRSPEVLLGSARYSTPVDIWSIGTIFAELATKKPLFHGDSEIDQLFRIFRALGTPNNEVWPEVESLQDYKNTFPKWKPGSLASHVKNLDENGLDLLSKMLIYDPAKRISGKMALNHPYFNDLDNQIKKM

CDK4/cyclin D1 complex [2] = biological target: T1, CDK4/cyclin D1 complex; experiment: inhibition constant from in vitro kinase assay (Sf9 extract, Gst-Rb substrate)

T1 sequence (P11802 whole entry, chain 1 of 2): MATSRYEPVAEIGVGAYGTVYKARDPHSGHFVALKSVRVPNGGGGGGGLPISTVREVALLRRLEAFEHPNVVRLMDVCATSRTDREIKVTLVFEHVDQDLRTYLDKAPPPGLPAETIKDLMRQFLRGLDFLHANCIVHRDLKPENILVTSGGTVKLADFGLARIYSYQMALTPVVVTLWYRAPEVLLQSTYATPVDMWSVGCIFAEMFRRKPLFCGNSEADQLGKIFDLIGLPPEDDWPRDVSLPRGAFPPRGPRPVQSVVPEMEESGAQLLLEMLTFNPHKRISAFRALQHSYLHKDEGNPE
T1 sequence (P24385 whole entry, chain 2 of 2): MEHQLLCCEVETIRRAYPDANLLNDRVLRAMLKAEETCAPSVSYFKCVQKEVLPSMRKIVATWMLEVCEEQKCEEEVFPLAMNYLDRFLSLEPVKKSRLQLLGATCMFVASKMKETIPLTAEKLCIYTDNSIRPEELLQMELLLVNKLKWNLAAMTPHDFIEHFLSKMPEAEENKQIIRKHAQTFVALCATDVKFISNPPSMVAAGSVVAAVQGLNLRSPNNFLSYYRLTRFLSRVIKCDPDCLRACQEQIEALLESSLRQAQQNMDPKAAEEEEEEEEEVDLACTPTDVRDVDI

IC50 of in vitro kinase assay (32P incorporation into Gst-Rb) (CDK4/cyclin D1 complex [1]): 250 nM
IC50 of in vitro kinase assay (32P incorporation into Gst-Rb) (CDK2/cyclin E complex): > 500 nM
IC50 of in vitro kinase assay (32P incorporation into Gst-Rb) (CDK2/cyclin A complex): > 500 nM
IC50 of in vitro kinase assay (32P incorporation into Gst-Rb) (cdc2/cyclin B complex): > 500 nM
Ki (CDK4/cyclin D1 complex [2]): 75 nM
B1: p16 (other, human, UniProt P42771 1-156, looked up)
chain: MEPAAGSSMEPSADWLATAAARGRVEEVRALLEAGALPNAPNSYGRRPIQVMMMGSARVAELLLLHGAEPNCADPATLTRPVHDAAREGFLDTLVVLHRAGARLDVRDAWGRLPVDLAEELGHRDVARYLRAAAGGTRGSNHARIDAAEGPSDIPD
notes: also called p16^Ink4/MTS1; p16^INK4A
